The text below walks through data of patent publication US20030208037A1 (CYTOVIA, published 2003).

*: point of attachment. TFB = 2,3,4,5-tetrafluorobenzoyl; PFB = pentafluorobenzoyl; Cbz = O=C(OCc1ccccc1)*; R110 = rhodamine 110 Where only a bound is given, the exact number is not on record here.

The target in the test is T1, recombinant caspase-3 (UniProt P42574 29-277, limits assumed).
T1 sequence (looked up): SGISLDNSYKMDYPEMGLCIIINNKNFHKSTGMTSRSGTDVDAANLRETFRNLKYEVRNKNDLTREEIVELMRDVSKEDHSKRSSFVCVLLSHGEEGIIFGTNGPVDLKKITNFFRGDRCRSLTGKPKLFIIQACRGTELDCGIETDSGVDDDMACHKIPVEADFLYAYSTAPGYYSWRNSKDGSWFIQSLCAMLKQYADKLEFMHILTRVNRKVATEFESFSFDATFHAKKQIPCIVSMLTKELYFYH
Kind of test: cell-based or functional assay.

B1: N-(Z-Asp-Glu-Val-Asp)-N'-pentafluorobenzoyl-Rhodamine 110 (peptide)
peptide: Cbz-DEVD-{R110-PFB}
Consider B1, for which the “increase in fluorescence on cleavage of the substrate (cell-free enzyme assay)” value was more than 10 fold.

B2: N-(Ac-DEVD)-N'-(2,3,4,5-tetrafluorobenzoyl)-R110 (peptide)
peptide: Ac-DEVD-{R110-TFB}
On to B2, for which the “increase in fluorescence on cleavage of the substrate (cell-free enzyme assay, 10 uM substrate, 3 hours at 37 C)” value was approximately 50 fold.
